Measured values taken from paper PMC4393111.

Legend:
[1] = molecular target: GFP-Dzip1 (full-length mouse Dzip1) (mouse) (UniProt Q8BMD2); test: co-IP; both partners co-expressed with tags in HEK 293T cells (some in G0 phase; some treated with the GSK3 inhibitors BIO or CHIR99021, the CK1 inhibitor D4476 or the CK2 inhibitor CX4945); IP of the GFP-, CFP/YFP-tagged partner; IP buffer 0.1% NP-40, 50 mM HEPES pH 7.00, 125 mM NaCl, 4°C
GFP-Rab8^T22N = GFP-Rab8^T22N (UniProt P61006); test: as above
[2] = molecular target: CFP-RBD-YFP (Rab8-binding domain of Rabin8 between CFP and YFP) (human)
[3] = molecular target: CFP-RBD-YFP (Rab8-binding domain of Rabin8 between CFP and YFP) (human); remark: listed apart in the source

UniProt P61006, sequence (P61006 whole entry T22N, the tested form may be a part): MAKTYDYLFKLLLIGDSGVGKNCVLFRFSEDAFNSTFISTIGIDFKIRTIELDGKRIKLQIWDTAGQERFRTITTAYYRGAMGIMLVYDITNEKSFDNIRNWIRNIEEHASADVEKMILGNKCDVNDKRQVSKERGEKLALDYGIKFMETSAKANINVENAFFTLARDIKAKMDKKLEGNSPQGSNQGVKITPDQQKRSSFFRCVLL

Substance: Flag-Rab8^T22N (from UniProt P61006 1-207) (natural protein)
- fold co-immunoprecipitated against Rab8^Q67L [1]: 3.5 fold

Substance: Myc-Dzip1 (from UniProt Q8BMD2 1-852) (natural protein)
- fold co-immunoprecipitated against wild-type Rab8 (GFP-Rab8^T22N): 5 fold

Substance: endogenous Rab8 of NIH 3T3 cells (from UniProt P55258 1-207) (natural protein)
- FE^CFP after YFP photo-bleaching (AB-FRET of the reporter CFP-RBD-YFP) around the cilium base, G0-phase NIH 3T3 RNAi control cells [2]: 9.3%
- FE^CFP after YFP photo-bleaching (AB-FRET of the reporter CFP-RBD-YFP) at the basal body, G0-phase NIH 3T3 cells treated with the GSK3 inhibitor BIO [3]: 3.3%
- FE^CFP after YFP photo-bleaching (AB-FRET of the reporter CFP-RBD-YFP) at the basal body, G0-phase NIH 3T3 cells treated with the GSK3 inhibitor CHIR99021 [3]: 2.6%
- FE^CFP after YFP photo-bleaching (AB-FRET of the reporter CFP-RBD-YFP) at the basal body, G0-phase NIH 3T3 cells, untreated control [3]: 4.8%
